Each substance was assayed on HEK293T (assay: median enrichment of reporter reads in eGFP-reduced (low/intermediate) vs eGFP-high sorted cells (eGFP-extension fusion abundance) (ratio); higher = stronger loss of eGFP-fusion protein abundance (more destabilising extension)).
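Note: lentiviral eGFP-IRES-mCherry reporter pool sorted by FACS 96 h post-transduction, gated on mCherry-high cells, Illumina read counts normalized per million, median across four biological replicates.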

| Substance | median enrichment |
| --- | --- |
| LVRRLGAPPRLRPASISLLQWPAS [IRF8] | 7.26 |
| LVSCLKGGNRKSRLLSVKFVLPVCC [PCMTD2] | 7.69 |
| LVSLPLVSAWQPPPPTYHPSPITQVNVTNLPCLHINLYIFGCSPYLMAVIIYRYVYPCYLVVSFSRGGTVFYSSLCPLFLSSV [PGLYRP4] | 2.37 |
| LVSRPWGSCFPIPEFPCSPPPVVLPDLHLELSPPESPHRRPAMEPSPPGAPWGPSP [ALPG] | 10.3 |
| LVTGYVKSFNVVLKSKGLLITDSRIMCS [FEM1B] | 11 |
| LVVAGPGPRPCPGPDSLSHVPSPRLPRTLSLPRPQP [MAFB] | 9.74 |
| LVVDVWGI [XRCC5] | 4.14 |
| LVW [ZNF160] | 1.8 |
| LVWGPCQPAAPKPAPLPKQPRPLPLNPGPGRPGRPPVTAAAPALCRAALTCLPSQPLTSRLSLGQREPFGGAACLLWFWEG [FLNA] | 3.92 |
| LWAHHKDTSSLCRHHPAIESGGPCWSLWTYSSRPEKSLALELNSLDCTITTTYELRDYEGLFRGYESEPLFLEL [TMEM177] | 9.96 |
| LWDNHKVWKLGLK [BCO2] | 4.23 |
| LWLPRPGRLLDILFWLNIVLWMVPQSGARILPRRKATNGSGNYIKPETLQQGENCAPGCLAQASLEPSKHFCPS [MAB21L3] | 6.66 |
| LWLSCLQYLNFKSKSIY [IFNG] | 13.2 |
| LWRQALQGGPDPRVVLTVLTVYLSSPRENASFEHTVPTICIEQKDFCFTEDKRCFYFRPRREEFALNL [CNOT8] | 15.4 |
| LWRSLVRRQDFSGLCLNGPHLNFSPFFLFLALGKASFYQTYRERKLQG [CTCF] | 9.53 |
| LWRWWPRGGLLGGVGDKTGQTTGPPKTVKG [HS6ST1] | 11.4 |
| LYKKKYCPYQKQILLCTF [RHOT1] | 9.77 |
| LYPFPIHSQINYNGC [SCNM1] | 7.94 |
| LYRSRWFFTALDIIPFYHPFITPKVCLIASEVYKVV [PLPPR5] | 7.74 |
| LYVTVSCLSSSMYF [ARHGEF35] | 14.4 |
| MALAVRVVYCGA [Degron KLHDC2] | 5.57 |
| MGNYILLCQGQQTPAVKGIPSARRLFGACMFIAPARPDRGLLHKPCLVHFFTCKGTECGLRFGTRGGFGNYGAQVIILRSFIQ [AHNAK] | 9.08 |
| MLSESRNFPAQA [Degron KLHDC3] | 4.77 |
| MMM [Met03] | 0.831 |
| MMMM [Met04] | 1.4 |
| MMMMM [Met05] | 5.18 |

| Substance | median enrichment |
| --- | --- |
| MMMMMMM [Met07] | 6.53 |
| MMMMMMMM [Met08] | 8.55 |
| MMMMMMMMM [Met09] | 8.27 |
| MMMMMMMMMM [Met10] | 10.8 |
| NGPPLPPSPDAEMVMGSWRVGSEMKGTPQWAAGPIFPKPCHYLCEGGQVAEGSGCRLLYPLCLKHPPHRALVFTRFVLDSLNG [SLC13A5] | 4.2 |
| NLYSLESMSCVYSTIRNLILFLLLFLQKQKLILKSIIMGWGGGCPQDMQDFCRGQHRFWDCEAVSEGGQAVWMAGLMLFRIKC [SETD4] | 13.5 |
| NNN [Asn03] | 0.227 |
| NNNN [Asn04] | 0.299 |
| NNNNN [Asn05] | 0.217 |
| NNNNNN [Asn06] | 0.37 |
| NNNNNNN [Asn07] | 0.297 |
| NNNNNNNN [Asn08] | 0.184 |
| NNNNNNNNN [Asn09] | 0.367 |
| NNNNNNNNNN [Asn10] | 0.3 |
| NRRRRWRERQR [Degron FEM1C] | 21.1 |
| PARVSGPRSIENTTTMARWKGLLVPASSCPPWCRWPGQPTGLGTGQAGPGRGLSLGGNKSRPTRRCCSGSRCRCRDKSAAVSG [MLST8] | 9 |
| PCRHHPPPSPCPQPVCPVPCPPQAWWWQWRRLRRLKRLTGRGAFCLAHCPDDPPAPSRLQQQSPRRTGWTEEKEVDCCTHTER [SOX10] | 3.84 |
| PEPGWGISAGQRRRLSQLFPDIQGHCSLLPSRTSLLPPTMAGGEQVSQKHPVPRMVLCACPSLLGLPFPLLREDVSLLTCTLA [KIRREL1] | 4.27 |
| PGCLPCLPRPALVAPTALTVNPEAGSPANLWAESGESWWMRLRRRQEHLETGASWTGTLPLPGHRSSGGSNLRLNTRHPCSQK [TMEM91] | 3.37 |
| PGLTALRSARRARAETRVGCGELKEPIKSCSSTQNEPCSRHLPMLRDAWSVLGARPGAAACPTPPEEADPDRYLTTFFFFFFF [UQCC3] | 5.28 |
| PHAQSPPIPHAAPPQSQATSCLLLVGGGLLSPSSLTFNLTLTLHRAPTLHPSWKAGLMASHWPPPPDQSVLFRGLAPFPVSLK [LGALS9] | 5.55 |
| PKWNHLTSAAPDLPGRMPLPLPSSNPQTRTPFLPPQAGPAPGVGSALSTPRAPRPSEGAPAGASDTLQFRAVGGLGHIPVPWL [SECTM1] | 1.79 |
| PLAPALPTSSAWSEGAARAQQRRGGRLWPPTSRPVPAGTASPSAGRGSAPRKCLLCPGAERRCLLGAGLPPCGSCAPWPGPCP [ARHGAP39] | 1.98 |
| PLLNLDFCPNPLPVTRSISLSLLSNGAWSTEASEAIALLAEVKRTLSPHLRLPCVEPASVCPSFHCSQCQTWAAAPRRLRPNQ [SLC18A3] | 5.19 |
| PPP [Pro03] | 0.305 |
| PPPP [Pro04] | 0.659 |

| Substance | median enrichment |
| --- | --- |
| PPPPP [Pro05] | 0.529 |
| PPPPPP [Pro06] | 0.323 |
| PPPPPPP [Pro07] | 1.37 |
| PPPPPPPP [Pro08] | 1.83 |
| PPPPPPPPP [Pro09] | 3.45 |
| PPTTPHQATPAASAFLGAERQPRPPVPSPPSHHRSSAPGRTVWPLPVPAMGSGWTPWAPPIAKPGRQLSLVPASGQPRVSPAS [CAPN1] | 6.04 |
| PTASSLQVQLKPLSSGGRHVERAGRPTAAENRAGTGSSCSAFPSFGDAGSAAPKHLPAPHSTVSEDSSLLPVKLPCAGMAWTC [CDC14B] | 2.89 |
| PTVRPQRGQDKPCPDAFDRQLCVLVDRCRNKEEMESAPEKLQIQARREVLRKDLQQLHIHINQHNTGWRPNSGVHKRRRDVVG [H6PD] | 5.25 |
| PVGKGGGLRGRGWMPRAPKPPFPFVSKGVRSELRKRASECVSLEGLGALWCYHLETCLMPPCLPMEDRLQELGPCGNLACFGG [MTA2] | 6.97 |
| PWPHQWHRGAPATGWPSGQPEHQGHCQPAAEAGEQDRDRPQRALPGQPSGFLRDGGRAGGRWRGMVDVPKRCQRAAGFRILLC [DECR2] | 3.51 |
| PWTWYTSMWSCWARGVLCAVNSVGSCSGVGARFLPPWAEGPFPLVLCPHPPPFSCSWASALPRASQVLLGREGNGEKGEASSV [KLHDC3] | 6.21 |
| QAASWRFEDAAFGLDEFQILLACFLILICLYTYTLCTKLFLIHGLLNPQMWSPWIRKARCTLNDK [B2M] | 11.1 |
| QAAVAPGDVCFIVPFFLLV [CCNB2] | 8.22 |
| QACPAVNLHLEP [SEC16A] | 0.624 |
| QALGKKDCNQRKSIGVEEIKLTLFWLFF [GLI3] | 25.8 |
| QALSIPM [IDH3B] | 0.815 |
| QAMPRPRT [CREB3L1] | 0.317 |
| QAPTLLLLALLPASVQRTGRYWWEALCLAPQLPVWASKHNGPSRSLVETGVVVPNLPSALPLHRTQRPQALQGVLVPAFPRTS [AMIGO3] | 1.8 |
| QAR [MMP10] | 0.457 |
| QATPAWPRSQDTGQGRPGPEELGAGPQT [APBA2] | 0.312 |
| QAVFNLLLNWVFLALILIINHNL [FAM47A] | 5.56 |
| QAVNSTFKVI [LMNTD1] | 0.803 |
| QCDSQCNNIKISFYIII [ASNSD1] | 4.36 |
| QCGSCDRGSSSAEPQTVLPCSMCLKAQGDIPLGWPLPPP [DIAPH1] | 1.17 |
